# Experimental data published in article PMC12145522.
# Assays:
# [1] = molecular target: RNAP-HrpL holoenzyme (His-tagged) (Pseudomonas syringae pv. actinidiae | not stated) (UniProt P37929); assay: MST; RNAP-HrpL holoenzyme labelled with RED-Tris-NTA, 50 nM, titrated with GST-TrpR2 from 0.38 nM to 25 μM; MST buffer; 25℃; Monolith NT.115, medium MST power, 90 % LED power; triplicate
# [2] = molecular target: GST tagged TrpR2 (Pseudomonas syringae pv. actinidiae M228); assay: MST
# UniProt P37929, sequence (P37929 whole entry, looked up): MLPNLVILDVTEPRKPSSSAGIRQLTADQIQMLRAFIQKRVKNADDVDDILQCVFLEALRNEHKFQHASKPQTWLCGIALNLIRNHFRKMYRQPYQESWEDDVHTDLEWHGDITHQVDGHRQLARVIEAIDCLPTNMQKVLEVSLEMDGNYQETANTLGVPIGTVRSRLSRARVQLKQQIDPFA
Substance,Kd [1] [µM],Kd [2] [µM]
GST tagged TrpR2 (natural protein),2.41,
RNAP-His,,7.75
